What was measured:
human MYCT1 (hMYCT1) [1] = target: T1, human MYCT1 (hMYCT1) (human, UniProt Q8N699 1-235, limits assumed); experiment: SPR (Biacore 8K), antibody captured via anti-human Fc IgG, MYCT1 as analyte, steady-state affinity model
T1 construct: also called MYC Target 1
T1 sequence: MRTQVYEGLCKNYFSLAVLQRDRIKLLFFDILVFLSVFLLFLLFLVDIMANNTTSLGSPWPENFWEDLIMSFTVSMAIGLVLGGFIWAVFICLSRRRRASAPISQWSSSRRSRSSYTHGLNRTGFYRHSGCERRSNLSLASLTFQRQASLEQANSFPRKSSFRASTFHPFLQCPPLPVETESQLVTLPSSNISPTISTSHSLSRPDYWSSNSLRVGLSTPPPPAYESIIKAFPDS

human MYCT1 (hMYCT1) [2] = target: T1, human MYCT1 (hMYCT1); experiment: as above; remark: listed apart in the source
human MYCT1 (hMYCT1) [3] = target: T1, human MYCT1 (hMYCT1); experiment: SPR full kinetics (Biacore 8K), antibody captured via anti-human Fc IgG, MYCT1 as analyte, steady-state affinity model
human MYCT1 (hMYCT1) [4] = target: T1, human MYCT1 (hMYCT1); experiment: SPR koff ranking, 1:1 binding model
human MYCT1 (hMYCT1) [5] = target: T1, human MYCT1 (hMYCT1); experiment: SPR koff ranking, single curve, antibody captured via anti-human Fc IgG, 10 nM MYCT1 as analyte, 1:1 binding model
human MYCT1 (hMYCT1) [6] = target: T1, human MYCT1 (hMYCT1); experiment: SPR full kinetics, multicycle, antibody captured via anti-human Fc IgG, MYCT1 0.625-10 nM as analyte, 1:1 binding model

Row | Binder | Kd (human MYCT1 (hMYCT1) [1]) [nM] | Kd (human MYCT1 (hMYCT1) [3]) [nM] | other results
1 | 2B4 parent antibody (antibody, V domains shown, Mouse parental variable domains; also called parent antibody (2B4); 2B4 clone) VH: EVQLQQSGPELVKPGASVKMSCKASGYTFTDYNMHWVRQSHGKGLEWIGYINPNNGGSSYNRKFKGKATLTVNKSSRSASMELRSLTSEDSAVYYCATRFDVWGTGTTVTVSS VL: not shown | 273 | 281 | Kd (human MYCT1 (hMYCT1) [2]): 181 nM
2 | 2B4-p3-uIgG1K (antibody, V domains shown) VH: EVQLQQSGPELVKPGASVKMSCKASGYTFTDYNMHWVRQSHGKGLEWIGYINPNNAGSSYNRKFKGKATLTVNKSSRSASMELRSLTSEDSAVYYCATRFDVWGTGTTVTVSS VL: not shown | 270 |  | 
3 | 2B4-p4-uIgG1K (antibody, V domains shown) VH: EVQLQQSGPELVKPGASVKMSCKASGYTFTDYNMHWVRQSHGKGLEWIGYINPNNGGSSYNRKFKGKATLTVNKSSRSASMELRSLTSEDSAVYYCATRFDVWGTGTTVTVSS VL: not shown | > 500 |  | 
4 | 2B4-p6-uIgG1K (antibody, V domains shown) VH: EVQLQQSGPELVKPGASVKMSCKASGYTFTDYNMHWVRQSHGKGLEWIGYINPNNGGSSYNRKFKGKATLTVNKSSRSASMELRSLTSEDSAVYYCATRFDVWGTGTTVTVSS VL: not shown | 288 |  | 
5 | 2B4-z2-p7-uIgG1K (antibody, V domains shown) VH: QVQLVQSGAEVKKPGASVKVSCKASGYTFTDYNMHWVRQAPGQGLEWMGYINPNSGGSSYNRKFKGRVTMTTDTSTSTAYMELRSLRSDDTAVYYCATRFDVWGQGTTVTVSS VL: DVVMTQSPLSLPVTLGQPASISCKSSQSLLFSDAKTYLNWLQQRPGQSPRRLIYLVSKLDSGVPDRFSGSGSGTDFTLKISRVEAEDVGVYYCWQGTHFPQTFGGGTKVEIK |  | 484 | 
6 | 2B4-z8-p7-uIgG1K (antibody, V domains shown) VH: QVQLVQSGAEVKKPGASVKVSCKASGYTFTDYNMHWVRQAPGQGLEWIGYINPNSGGSSYNRKFKGRVTMTTDTSTSTAYMELRSLRSDDTAVYYCATRFDVWGQGTTVTVSS VL: DVVMTQSPLSLPVTLGQPASISCKSSQSLLFSDAKTYLNWLQQRPGQSPRRLIYLVSKLDSGVPDRFSGSGSGTDFTLKISRVEAEDVGVYYCWQGTHFPQTFGGGTKVEIK |  | 586 | 
7 | 11B6 parent antibody (antibody, V domains shown, Mouse parental variable domains; also called parent antibody (11B6); 11B6 clone) VH: EVQLVESGGGLVKPGGSLKLSCAASGFTFSDFGIHWVRQAPEKGLEWVGYISSGSRTIHYADTVKGRFTISRDNAKNTLFLQMTNLRSEDTAIYYCARRDWDPEWLAYWGQGTLVTISA VL: DVVMTQAPLSLPVSLGDQASISCRSSLSLVHSNGHTYLHWYLQKPGQSPKLLIYKVSNRFSGVPDRFSGSGSGTDFTLKIRRVEAEDLGVYFCSQSTHVPFTFGSGTKLEIK |  |  | koff (human MYCT1 (hMYCT1) [4]): 0.00456 s⁻¹; koff (human MYCT1 (hMYCT1) [5]): 0.00496 s⁻¹; Kd (human MYCT1 (hMYCT1) [6]): 1.2 nM; koff (human MYCT1 (hMYCT1) [6]): 0.00411 s⁻¹; kon (human MYCT1 (hMYCT1) [6]): 3.44e+06 M⁻¹ s⁻¹
